{"source": "patent US20140370024A1", "about": "(IMPERIAL INNOVATIONS, published 2014)", "biological_target": "T1, gC1qR, the receptor of the globular part of the complement protein C1q, from rat brain membrane fractions (rat, UniProt O35796 72-279)", "T1 construct": "also called ~30 kDa band", "T1 sequence (looked up)": "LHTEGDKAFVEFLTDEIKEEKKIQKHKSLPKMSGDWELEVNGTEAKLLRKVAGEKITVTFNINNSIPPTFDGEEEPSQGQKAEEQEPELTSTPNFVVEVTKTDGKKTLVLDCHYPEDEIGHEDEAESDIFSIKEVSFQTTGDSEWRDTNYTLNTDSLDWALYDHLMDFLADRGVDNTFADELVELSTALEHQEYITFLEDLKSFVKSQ", "experiment": "chemical cross-linking to rat brain membrane fraction, Tricine-PAGE, Western blot with streptavidin-HRP; band identified as gC1q-R by LC-MS/MS", "protocol": "The reaction was terminated using 50 mM Tris buffer, and samples were ethanol precipitated and resolved using Tricine-PAGE and visualised by Western blot analysis by streptavidin-horse radish peroxidase. A clear band at ˜30 kDa (indicated by an arrow) was observed following chemical crosslinking using biotinylated TLQP-21., which was many orders of magnitude greater than the corresponding band in the membrane control lane using unconjugated Sulfo-EMCS cross-linker. b, Membrane fractions of P4 rat brain was applied to either monomeric avidin column attached with TLQP-21 or monomeric avidin column only (“Negative control”). Following considerable washes, proteins bound to the columns were eluted and resolved on SDS-PAGE, followed by silver staining. A ˜30 kDa band (arrow) was apparent in the elutant from the TLQP-21-attached column. C, The ˜30 kDa band was analysed by LC-MS/MS Orbitrap following trypsinisation.\nCcl11 has been linked to inflammation²³, while Cxcl9 is known as a natural antagonist to Ccl11 receptor CCR3²⁴. We then used Sulfo-EMCS-conjugated TLQP-21 to purify and identify receptor(s) for TLQP-21. […] The membrane fractions of rat brain was incubated with the crosslinker-conjugated TLQP-21, and analysed by Tricine-PAGE and Western blotting using Streptavidin-HRP for the biotin tag on TLQP-21.", "data": [{"binder": "TLQPPASSRRRHFHHALPPARC (biotin covalently attached via the amide bond at the N-terminus; Sulfo-EMCS cross-linker conjugated via the sulphydryl group of the extra cysteine at the C-terminus, Used for chemical cross-linking to rat membrane fractions; also called crosslinker-conjugated TLQP-21; Sulfo-EMCS-conjugated TLQP-21)", "note": "[Sulfo-EMCS cross-linker-conjugated biotinylated TLQP-21]", "values": [{"measurement": "binding result", "result": "binds"}]}]}
